Experimental findings from a protein production outcome set (Wang et al. 2014) are described below.
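Also: failed if final PepcDB status was selected cloned or expressed and not failed if soluble or beyond.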

The nature of the series: label from the status in PepcDB records.
As to “MENVKVSVIVPVYNVETYLEEALMSLKNQTLKEIEFLIINDGSTDNSQKIIEEIAQDDPRFRVFNVKNGGIGKAFNLGVSEAKGEYIAEFESDDYVALHAYERLYNTAKSHHADVVRCNWVEFSSEEEVERDILWQYPDKYNQLIDLKTTDLIVQVYPWNAIYKKSMIEKENVTWDEEIKSYGDTGLFWKINSASQNVIFIKDCLYFYRQDNPNSTVNNVATKVPFLFQQFKLIRSNLIEQNKFERYKGYFYKQMFEKYFWAIEKLTHLRDESVYEVIQKVAVDFRQALETDQLNDIDFEYIKQFYQIANDPAAYYEDYLKNLYKVSVVMPIHNASKYLRQTLETVCEQSLREIEIILVENGSTDNTMDIINEFAVKDPRITGISIGKSNPGHARNVGISMARGRYLQFLDADDHFEANLLQDAYYRAYDSATDILLFGMKEKLPNGEVHVVHNPLLTNGGRMSGEEISLDEVTPYLYDKLFLLEYIKENNLVNLEQFVGEDAYFTYTALLGTEKIVALNKYLLTRIVRQDGLMSTYGMNYRDEFNLHDKMLEYLKQHAPNRIEAYRLKIINTLNWFIFDMNRVDQAFKERFYQELKEKYIQQLGLDLVKKEKYSNDPEQVERITRIQNILQYNLEIYQNIYKDFGMKKTFIIPNVHIQERGGKVIFGQEKTQGNGTAIEMFSIIIADNDTSNASGVIDFVYMGDNTKIIHDSLLVSLLIKKEGTTLKSIVLQAEWEKGYTLLQENMYYTFVDNVFTIWAGYTQKYAAFDYNVRILTSREGETHFSVVRQNQGYIQDTMTSIGNELTPINKIEGNEPTTIKKAVSKSLKKAKGLLK”, the protein production entry is on record as “failed”.
Consider “MENWFRADTWFGRLVDVGNTFIWTYVLIALLLGLGLYFTFVSRFVQFRLLGEMGRLLVEGMNRKAFKERKGTSSFQAFAISTAARVGTGNLAGVAVAISLGGPGAIFWMWIIALIGAATGFIESTLAQIYKVKDKDGFRGGPAYYMEKALNARWAGILFAILITLCFGLIFNAVQTHTIADAFVGAYDLNPFFIGLIIAFVMAFIVFGGIRRIAVIAEVIVPTFAIAYVLIALVIVLLNITQVPSVIGLIVGNAFGIQEVVGGGFGAAIMHGIRRGLFSNEAGMGSAPNAAATAHVSHPVKQGLVQSLSVLTDTLIICSATAFLILLTDVYTVGEMGGIQLTQEALTVHIGEWSMTFVTIAISFFAFSSLLGNYYYGEANIQFISQNRALLTVFRLAFLAMILIGATSELQIIWEMADLIMGAMAIVNLIAIALLAKIAVQALTDYQHQRKQGIDPVFYKNSLPDLKNIEAWDEKPVKEKN”, for which the protein production entry is listed as “failed”.
The same measure for “MEPMQVVKQRRDAALNALVSGVPFIRFLNITFDRRGDELTGVLNFDDKLIGNPFLPAIHGGVTAAFLEVTAVITLSWAHLFERIESGDLAPEDILTDENMRFPKTIDFTIDYLRSGLPRDAYARAYISRAGRRYASVRVEAWQDHHDKLYAQGTGHFLMPLEHHHHHH”: “failed”.
The value for “MEPNCVQFLENRTILVTGASGFLAKVLVERILRLQPNVKRLYLLVRASDKKSAEQRYDVALGINTFGAINVLNFAKKCVKPKLLLHVSTVYVCGERPGHIVEKHFAMGESLNGKNKVDINTERRLADQKSKQFKEQGCSEEETEQAMKDFGLKRARLYGWPNTYVFTKAMGEMLLGHYRETMPIVIIRPTIITSTFSDPFPGWIEGLKTVDSVIIFYGKGILKCFLVDQKTVCDIIPVDMVVNAMIAIAADHCHDSGSHTVYHVGSSNQNPVIYKQIYEMMSRYFMKSPLVGRNGMLIVPKVTRISTLARFRVYTNLRYKLPIQILGLLSVISLSQRDKFALHNRKFKMAMRLVKLYKPYVLFKGIFDDKNMETLRIKNEAKDMEKLFGTNPKCIDWEDYFMIRISLAS” was “failed”; that for “MEPNKDDNVSLAATAQISAPPVLQDASSLPGFSAIPPVVPPSFPPPMAPIPMMPHPPVARPPTFRPPVSQNGGVKTSDSDSESDDEHIEISEESKQVRERQEKALQDLLVKRRAAAMAVPTNDKAVRDRLRRLGEPITLFGEQEMERRARLTQLLTRYDINGQLDKLVKDHEEDVTPKEEVDDEVLEYPFFTEGPKELREARIEIAKFSVKRAAVRIQRAKRRRDDPDEDMDAETKWALKHAKHMALDCSNFGDDRPLTGCSFSRDGKILATCSLSGVTKLWEMPQVTNTIAVLKDHKERATDVVFSPVDDCLATASADRTAKLWKTDGTLLQTFEGHLDRLARVAFHPSGKYLGTTSYDKTWRLWDINTGAELLLQEGHSRSVYGIAFQQDGALAASCGLDSLARVWDLRTGRSILVFQGHIKPVFSVNFSPNGYHLASGGEDNQCRIWDLRMRKSLYIIPAHANLVSQVKYEPQEGYFLATASYDMKVNIWSGRDFSLVKSLAGHESKVASLDITADSSCIATVSHDRTIKLWTSSGNDDEDEEKETMDIDL” was “failed”; that for “MEPQKESNQNYLPYPPHPQQDHDEIDLRELFKALWEGKWIVIATTFVIAVSAVLYALSLPNIYKADALLAPAESSNGGGLSKMAGQLGGLAALAGVNLGASESSQTDLAVQVMRSRQFINTFINKHDLLVPLMAGKDWDLSNNKLILDEELYNPNTGEWLRDAKGLRGATPTAQEAFEVFSKEVLSINQDKESGLYTVSMKNYSPYIAQQWVNWLIEDINKAMRERTIAETSQNLAYLNTQLQKTAVTDMQSTFYKLIEEQTKSLMLAEVQEEFVFKVVDPAVVPELKDSPKRVLICVLGILLGVMLGVAIVLIRIVFRKEDTENLEPRT” was “failed”.
For the sequence “MEPSAKHLQLQTLLSERHAYLMEGNREAMHQLLSSDFSFIDGQGRQFDAETYLDHYVDPDQIQWSNQISESMVVEVFETTALVQEIVEDHFSYGRSMYIGRFRSVSLYHWANEGWKWHFHQLTPLDPS”, the protein production entry is on record as “not failed”.
For the sequence “MEQLQVGQVTLTWLNGGVTHLDGGAMFGVVPKPLWSKKYPPNDQNQIELRTDPILVEAGGKRLLIESGIGNGKLTDKQKRNFGVTEESSLDESLAALGLTRGDIDIVIMTHLHFDHACGLTVWEDGRLVPAFPRAAIITSDVEWEEMRAPNIRSRNTYWKENWEPIAEQVIPFTKETEVVSGIRLIHTGGHSAGHAIVLIESDGEMAIHLGDLLGTHAHQNVLWVMAYDDYPMDSIFAKQRWLPYGIERNAWFTFYHDAYYRAVKWREDGTIAEQVKRNRPTLLEHHHHHH”, the protein production result is on record as “not failed”.
For “MEQMKITNLTGEQISFQLILHSGNARSCIIQSLRAYKEGKKDEADALIAKAEQDLSAAHDIHFQMIQKESGGEATAFSLLLMHAEDHLMSTLSMKELVKEMLDLFKTKNI”, the protein production result is “failed”.
The value for “MEQNITLKDRSKLVISGVEHIYSFNDKRVELKTSVGEMVIEGENLDMSKLSIDENIISIDGTINSMVYAKPKKPQESFLKKVFR” was “failed”; that for “MEQQKDYIELYENEELIEIREARMDDLDTIAKFNYNLAKETEGKELDMDVLTKGVKALLLDERKGKYHVYTVFDKVVAQIMYTYEWSDWRNGNFLWIQSVYVDKEYRRKGIFNYLFNYIKNICDKDENIVGMRLYVEKENINAKATYESLNMYECDYNMYEYEVIHS” was “failed”.
For the sequence “MEQRIWDLFGISADGNISRGNSGCVHTRNNKKEGDVLKVLTYVMLASVILFTTTYLILYLTYAKPVEIDVPFYGAPRGYTTITYEEVILPLTGKYKIENCYVQDSRSIYSNEGYLSERGVRIIVGNYTEDVYVRLIPQKMIPSEIIFLLMVGGVLGYVGDRMFKFK”, the protein production entry is recorded as “failed”.
As to “MERAAFGKLVQALRREHRDEKGRVWTQEVLAERTQLPKRTIERIENGSLAHLDADILLRLADALELTIGERREFFFAATGIIEQKSATYKRSPEESLQYLIDMIRNMNVPAFVTDQYVNIIAANMITIRFFNIPMELIETAPLLPHGYNLMRVVFGTEYDFRRVVGTMWDEVARHNMQLFRAISLRVRADGYFVELLDNLMQYREFKRFWERAHLETEDTSAENFWYQYTHPVYGLLSYVSSRSQIPTSMGLLSMHTYIPLSPATTDLFAKLSTVANQDVIRLAPWPRSNG”, the protein production result is recorded as “not failed”.
The same measure for “MERAFLRYVPILAFITIMTMYVEMVILPSLPEIENQFSITSSEASWVLSSETLAGMTLAPFLGKLADSYGRKKVLISILVVYILSVFLTAISPNYSILLISRSIQGIGLSINPIAYTILRERIPDRELPIAQGIIASTFAIGAAVALPIGSYISQYFSWEFAYETAIPLLILSTIIIYVILPSSESKGSDRKIDDVGVILLSLSFLILGIGLTEAPTWGWTSLQFFTSLLLSILLFYLFALHISKSRNPIIDPYDFKNPNVAVPLISSFITGFGLFLTFQSLVFIFELPSPIGYGMTILQTGETMAPIALIILIAGPFFGRLVTKIGYMKVILTSSSVSSFLLLFLAYIISLRISVLELMGFLSLILFFISGMNVTRVTLLIASSKRERMSTLTGTNTSMRLMGNTLGPIVVGSLEDTFKTPIFEGYLNNIPIFAFVPSRLAFEYAFLISMATTVLVTILATRIRERPSTTTYA”: “failed”; for “MERDGCAGGGSRGGEGGRAPREGPAGNGRDRGRSHAAEAPGDPQAAASLLAPMDVGEEPLEKAARARTAKDPNTYKVLSLVLSVCVLTTILGCIFGLKPSCAKEVKSCKGRCFERTFGNCRCDAACVELGNCCLDYQETCIEPEHIWTCNKFRCGEKRLTRSLCACSDDCKDKGDCCINYSSVCQGEKSWVEEPCESINEPQCPAGFETPPTLLFSLDGFRAEYLHTWGGLLPVISKLKKCGTYTKNMRPVYPTKTFPNHYSIVTGLYPESHGIIDNKMYDPKMNASFSLKSKEKFNPEWYKGEPIWVTAKYQGLKSGTFFWPGSDVEINGIFPDIYKMYNGSVPFEERILAVLQWLQLPKDERPHFYTLYLEEPDSSGHSYGPVSSEVIKALQRVDGMVGMLMDGLKELNLHRCLNLILISDHGMEQGSCKKYIYLNKYLGDVKNIKVIYGPAARLRPSDVPDKYYSFNYEGIARNLSCREPNQHFKPYLKHFLPKRLHFAKSDRIEPLTFYLDPQWQLALNPSERKYCGSGFHGSDNVFSNMQALFVGYGPGFKHGIEADTFENIEVYNLMCDLLNLTPAPNNGTHGSLNHLLKNPVYTPKHPKEVHPLVQCPFTRNPRDNLGCSCNPSILPIEDFQTQFNLTVAEEKIIKHETLPYGRPRVLQKENTICLLSQHQFMSGYSQDILMPLWTSYTVDRNDSFSTEDFSNCLYQDFRIPLSPVHKCSFYKNNTKVSYGFLSPPQLNKNSSGIYSEALLTTNIVPMYQSFQVIWRYFHDTLLRKYAEERNGVNVVSGPVFDFDYDGRCDSLENLRQKRRVIRNQEILIPTHFFIVLTSCKDTSQTPLHCENLDTLAFILPHRTDNSESCVHGKHDSSWVEELLMLHRARITDVEHITGLSFYQQRKEPVSDILKLKTHLPTFSQED”: “failed”.
Consider “MERHEEIKKGAWIGILGNTVLAVLKILVGLLTGSYAILADGIDTSTDIFTSLVILLSSRISGKPPDETHPYGHERAETIASKIISFVMFYAGASLLVESVKRLVKQEFSLELTLTAFIVVGISVAGKTFLFLYKLSLGKRLKSSATISDALNMRNDIMISGTVLAGMVAMKTFGWWWLDSLLAIFVSIMILRTSFSVFYEAAYELMDGMKRTELDMYDDIFAVLERFPNVHNPHRVRIRRVGTKYFIEMDIEVDGKMSVKDAHELTVKIRKEMLKRRDDIEDVTIHVEPLGNVEEEGFGLKKGEKK”, for which the protein production result is reported as “failed”.
The value for “MERHQHLLSEYQQILTLSEQMLVLATEGNWDALVDLEMTYLKAVESTANITISSCSSLMLQDLLREKLRAILDNEIEIKRLLQLRLDRLSDLVGQSTKQQAVNNTYGQFPDHALLLGETQ” was “not failed”; that for “MESDRNLNYINLFMIFVNLIIIVFTSEIMTITLYKISSEFMARDFLDQITVIPWKPQNITIVSIGAYIILIILITVKKKYAKFLNKWEIAALLLCEIFFSVAIMTALNMSYNGIILFIIADLVTNTKDKSNKIIFLILMIIIYIFSVYDFISLKIKMVSFENFLYYYTANRRSYLMELKSILNSINIIVFILYMIVFIQVQMRENEKITSLNKKLNLANEKLEVMNVQLKEYAVKIGSMAETRERNRMAREIHDTLGHALTGISVGIDACLTTIDVSKELTKKQLNIIADVAREAIKDVRRSVKKLRPDALENSSLQDALNNMISRISKATKTKVFLNANIKLLKFGHDEEDTIYRIIQEGITNSIRHGQAEEIYIDMIRRDKQLNITIRDNGKGCANVEEGFGLRHIEERVKLLNGTVEYDGSDSFLITVNIPIRWGDGS” was “failed”.
